Data: US20130253037A1 (PURDUE RESEARCH FOUNDATION, published 2013)

Target: T1, Aurora A kinase (endogenous, MDA-MB-231 cells) (human, UniProt O14965 1-403)
T1 sequence (looked up): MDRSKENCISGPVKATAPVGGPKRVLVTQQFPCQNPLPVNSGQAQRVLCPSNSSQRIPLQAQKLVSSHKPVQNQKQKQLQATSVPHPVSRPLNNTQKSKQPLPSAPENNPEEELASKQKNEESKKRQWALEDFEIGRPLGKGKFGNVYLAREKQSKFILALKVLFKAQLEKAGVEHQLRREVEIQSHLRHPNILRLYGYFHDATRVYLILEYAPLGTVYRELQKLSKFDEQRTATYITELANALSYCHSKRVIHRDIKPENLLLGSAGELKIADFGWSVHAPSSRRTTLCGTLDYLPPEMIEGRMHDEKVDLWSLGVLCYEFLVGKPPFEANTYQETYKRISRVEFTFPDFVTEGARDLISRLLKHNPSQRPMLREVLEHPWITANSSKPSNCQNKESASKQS
Test: HA-tagged truncated LIMK2 mutants expressed in MDA cells, isolated and analyzed for Aurora A binding
Protocol: LIMK2 contains two LIM domains (12-129), a PDZ domain (152-236), an S/P domain (240-328) and a kinase domain (331-601) (Scott and Olson (2007) J. Mol. Med. 85, 555-568). […] These mutants were transiently expressed in MDA cells, isolated and analyzed for Aurora A binding.
We next investigated whether association of LIM domains of LIMK2 is sufficient for Aurora A stabilization. […] After 30 h, cells were lysed, HA-tagged LIMK2 proteins were isolated and probed for Aurora A binding. […] After 30 h, cells were lysed, HA-tagged LIMK2 proteins were isolated and probed for Aurora A binding.

B1: HA-tagged (1-145) LIMK2 (other, not shown: small tags and cut ends)
chain: MSALAGEDVWRCPGCGDHIAPSQIWYRTVNETWHGSCFRCSECQDSLTNWYYEKDGKLYCPKDYWGKFGEFCHGCSLLMTGPFMVAGEFKYHPECFACMSCKVIIEDGDAYALVQHATLYCGKCHNEVVLAPMFERLSTESVQEQ
notes: also called truncated LIMK2 mutant containing two LIM domains
  binding result: binds
